According to patent US20200095340A1:

Biological target: biotinylated human DLL3 protein expressed as a human IgG1 fusion protein (human) (UniProt Q9NYJ7)
Test: Octet BLI; biotinylated huDLL3-IgG1 fusion on streptavidin tips; single 50 nM; conditioned medium

Chain of biotinylated human DLL3 protein expressed as a human IgG1 fusion protein (human) (Q9NYJ7 other isoform, or with tags, fused parts or gaps): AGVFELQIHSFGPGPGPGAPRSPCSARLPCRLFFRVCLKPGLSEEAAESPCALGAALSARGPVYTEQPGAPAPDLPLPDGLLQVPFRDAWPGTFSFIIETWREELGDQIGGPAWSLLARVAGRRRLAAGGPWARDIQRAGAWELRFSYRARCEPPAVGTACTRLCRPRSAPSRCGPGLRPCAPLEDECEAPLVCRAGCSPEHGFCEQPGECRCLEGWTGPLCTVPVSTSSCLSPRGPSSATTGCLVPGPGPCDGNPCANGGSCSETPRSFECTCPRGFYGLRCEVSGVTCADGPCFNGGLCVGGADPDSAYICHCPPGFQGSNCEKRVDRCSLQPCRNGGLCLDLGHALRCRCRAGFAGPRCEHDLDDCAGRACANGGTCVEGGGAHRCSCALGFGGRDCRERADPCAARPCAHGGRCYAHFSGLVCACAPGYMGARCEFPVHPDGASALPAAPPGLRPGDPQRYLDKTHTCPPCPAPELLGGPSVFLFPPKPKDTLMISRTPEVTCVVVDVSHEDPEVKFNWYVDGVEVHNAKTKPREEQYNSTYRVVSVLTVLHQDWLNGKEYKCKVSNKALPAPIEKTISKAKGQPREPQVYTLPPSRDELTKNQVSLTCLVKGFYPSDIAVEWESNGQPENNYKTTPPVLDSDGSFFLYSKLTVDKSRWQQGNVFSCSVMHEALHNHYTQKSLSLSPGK

Binder	Kd [nM]
anti-DLL3 trispecific protein 2F01 (protein, part only; not given: anti-CD3 and anti-albumin domains, part only) chain, part: EVQLVESGGGLVQPGGSLTLSCVASGSTSSINAMGWYRRAPGKQRELVAGISSDGSKVYSDSVKGRFTISRDNAKNSVYLQMNSLRAEDTAVYYCYYFRLVSGSSMRYWGQGTLVTVSSGGGGSGGGSGGGGSGGGSHHHHHH	9.2
anti-DLL3 trispecific protein 1E08 (protein, part only; not given: anti-CD3 fragment and anti-albumin sdAb, part only) chain, part: EVQLVESGGGLVQPGGSLTLSCVASGKTSSINAMGWYRRAPGKQRELVAGISSDGSKVIADSVKGRFTISRDNAKNSVYLQMNSLRAEDTAVYYCYYFRTVLGSSMRYWGQGTLVTVSSGGGGSGGGSGGGGSGGGSHHHHHH	9.4
anti-DLL3 trispecific protein 1D012 (protein, part only; not given: anti-CD3 fragment and anti-albumin domain, part only) chain, part: EVQLVESGGGLVQPGGSLTLSCVASGSTSHINAMGWYRRAPGKQRELVAGISSDGSRVYADSVKGRFTISRDNAKNSVYLQMNSLRAEDTAVYYCYYFRTVSGGSMRYWGQGTLVTVSSGGGGSGGGSGGGGSGGGSHHHHHH	9.3
anti-DLL3 trispecific protein 4F08 (protein, part only; not given: anti-CD3 and anti-albumin domains, part only) chain, part: EVQLVESGGGLVQPGGSLTLSCAASGSKVSFLSMAWYRQAPGKKRELVAGISADGSTAYIDSVKGRFTISRDNAKNSVYLQMNSLRAEDTAVYYCYAYRWRTRYTYWGQGTLVTVSSGGGGSGGGSGGGGSGGGSHHHHHH	9
anti-DLL3 trispecific protein 3C02 (protein, part only; not given: anti-CD3 and anti-albumin domains, part only) chain, part: EVQLVESGGGLVQPGGSLTLSCAASGSSVRFLSMAWYRQAPGKKRELVAGISADGSTIYIDSVKGRFTISRDNAKNSVYLQMNSLRAEDTAVYYCYAYRWRTRYTYWGQGTLVTVSSGGGGSGGGSGGGGSGGGSHHHHHH	9.1
anti-DLL3 trispecific protein 4E010 (protein, part only; not given: anti-CD3 and anti-albumin domains, part only) chain, part: EVQLVESGGGLVQPGGSLTLSCAASGSSVKFLSMAWYRQAPGKKRELVAGISADGSTDYIDSVKGRFTISRDNAKNSVYLQMNSLRAEDTAVYYCYAYRWRTRYTYWGQGTLVTVSSGGGGSGGGSGGGGSGGGSHHHHHH	9
anti-DLL3 trispecific protein 3H01 (protein, part only; not given: CD3 binder and albumin binder, part only) chain, part: EVQLVESGGGLVQPGGSLTLSCVASGSSVKFLSMAWYRQAPGKKRELVAGISGDGSTTYIDSVKGRFTISRDNAKNSVYLQMNSLRAEDTAVYYCYAYRWTTRRTYWGQGTLVTVSSGGGGSGGGSGGGGSGGGSHHHHHH	9
anti-DLL3 trispecific protein 3A04 (protein, part only; not given: CD3 binder and albumin binder, part only) chain, part: EVQLVESGGGLVQPGGSLTLSCAASGSQVSFLSMAWYRQAPGKKRELVAGISRDGSTDYIDSVKGRFTISRDNAKNSVYLQMNSLRAEDTAVYYCYAYRWTTRYIYWGQGTLVTVSSGGGGSGGGSGGGGSGGGSHHHHHH	9.2
anti-DLL3 trispecific protein 4A09 (protein, part only; not given: anti-CD3 and anti-albumin domains, part only) chain, part: EVQLVESGGGLVQPGGSLTLSCAASGSSVKFLSMAWYRQAPGKKRELVAGISADGSTDYIGSVKGRFTISRDNAKNSVYLQMNSLRAEDTAVYYCYAYRWTTRVTYWGQGTLVTVSSGGGGSGGGSGGGGSGGGSHHHHHH	9
anti-DLL3 trispecific protein 3B011 (protein, part only; not given: anti-CD3 and anti-albumin domains, part only) chain, part: EVQLVESGGGLVQPGGSLTLSCAASGSSVSFLSMAWYRQAPGKKRELVAGISADGSADYIDSVKGRFTISRDNAKNSVYLQMNSLRAEDTAVYYCYAYRWVTRYTYWGQGTLVTVSSGGGGSGGGSGGGGSGGGSHHHHHH	9
anti-DLL3 trispecific protein 4A05 (protein, part only; not given: anti-CD3 and anti-albumin domains, part only) chain, part: EVQLVESGGGLVQPGGSLTLSCAASGSSVSFLSLAWYRQAPGKKRELVAGISADGSTDYIDSVKGRFTISRDNAKNSVYLQMNSLRAEDTAVYYCYAYRWKTRRTYWGQGTLVTVSSGGGGSGGGSGGGGSGGGSHHHHHH	9.4
anti-DLL3 trispecific protein 4E09 (protein, part only; not given: anti-CD3 fragment and anti-albumin sdAb, part only) chain, part: EVQLVESGGGLVQPGGSLTLSCAASGSSVSFLSSAWYRQAPGKKRELVAGISADGSTLYIDSVKGRFTISRDNAKNSVYLQMNSLRAEDTAVYYCYAYRWTTRSTYWGQGTLVTVSSGGGGSGGGSGGGGSGGGSHHHHHH	9.1
